Data reported in the supplement of paper PMC11246515.
± gives the standard deviation of the averaged measurements.

Assay: total protein half-life in vivo (active degradation + dilution); higher = more stable protein
[1] = E. coli NCM3722 delta-clpP delta-lon delta-hslV, growth: N-lim chemostat, doubling time 6 h
[2] = E. coli NCM3722 delta-clpP, growth: N-lim chemostat, doubling time 6 h
[3] = E. coli NCM3722 delta-hslV, growth: N-lim chemostat, doubling time 6 h
[4] = E. coli NCM3722 delta-lon, growth: N-lim chemostat, doubling time 6 h
[5] = E. coli NCM3722 delta-smpB, growth: N-lim chemostat, doubling time 6 h
[6] = wild type E. coli NCM3722, growth: C-lim chemostat, doubling time 3 h
[7] = wild type E. coli NCM3722, growth: C-lim chemostat, doubling time 6 h
[8] = wild type E. coli NCM3722, growth: C-lim chemostat, doubling time 12 h
[9] = wild type E. coli NCM3722, growth: N-lim chemostat, doubling time 6 h
[10] = wild type E. coli NCM3722, growth: N-lim chemostat, doubling time 12 h
[11] = wild type E. coli NCM3722, growth: P-lim chemostat, doubling time 6 h
[12] = wild type E. coli NCM3722, growth: P-lim chemostat, doubling time 12 h

MSILVTRPSPAGEELVSRLRTLGQVAWHFPLIEFSPGQQLPQLADQLAALGESDLLFALSQHAVAFAQSQLHQQDRKWPRLPDYFAIGRTTALALHTVSGQKILYPQDREISEVLLQLPELQNIAGKRALILRGNGGRELIGDTLTARGAEVTFCECYQRCAIHYDGAEEAMRWQAREVTMVVVTSGEMLQQLWSLIPQWYREHWLLHCRLLVVSERLAKLARELGWQDIKVADNADNDALLRALQ
total protein half-life in vivo [1]: 5.34 ± 0.71 h
total protein half-life in vivo [2]: 4.14 ± 0.96 h
total protein half-life in vivo [3]: 4.13 ± 0.24 h
total protein half-life in vivo [4]: 4.69 ± 0.62 h
total protein half-life in vivo [5]: 3.57 ± 0.23 h
total protein half-life in vivo [6]: 2.351 ± 0.014 h
total protein half-life in vivo [7]: 4.45 ± 0.14 h
total protein half-life in vivo [8]: 9.45 ± 3.5 h
total protein half-life in vivo [9]: 3.83 ± 0.21 h
total protein half-life in vivo [10]: 6.5 ± 0.57 h
total protein half-life in vivo [11]: 5.08 ± 0.62 h
total protein half-life in vivo [12]: 9.38 ± 0.13 h

MTVNSSRNALKRRTWALFMFFFLPGLLMASWATRTPAIRDILSVSIAEMGGVLFGLSIGSMSGILCSAWLVKRFGTRNVILVTMSCALIGMMILSLALWLTSPLLFAVGLGVFGASFGSAEVAINVEGAAVEREMNKTVLPMMHGFYSLGTLAGAGVGMALTAFGVPATVHILLAALVGIAPIYIAIQAIPDGTGKNAADGTQHGEKGVPFYRDIQLLLIGVVVLAMAFAEGSANDWLPLLMVDGHGFSPTSGSLIYAGFTLGMTVGRFTGGWFIDRYSRVAVVRASALMGALGIGLIIFVDSAWVAGVSVVLWGLGASLGFPLTISAASDTGPDAPTRVSVVATTGYLAFLVGPPLLGYLGEHYGLRSAMLVVLALVILAAIVAKAVAKPDTKTQTAMENS
total protein half-life in vivo [2]: 4.21 h
total protein half-life in vivo [12]: 7.65 h

MTTLTAQQIACVYAWLAQLFSRELDDEQLTQIASAQMAEWFSLLKSEPPLTAAVNELENRIATLTVRDDARLELAADFCGLFLMTDKQAALPYASAYKQDEQEIKRLLVEAGMETSGNFNEPADHLAIYLELLSHLHFSLGEGTVPARRIDSLRQKTLTALWQWLPEFVARCRQYDSFGFYAALSQLLLVLVECDHQNR
total protein half-life in vivo [1]: 5.85 h
total protein half-life in vivo [7]: 4.24 h
total protein half-life in vivo [12]: 9.47 ± 1.7 h

MLSTLRRTLFALLACASFIVHAAAPDEITTAWPVNVGPLNPHLYTPNQMFAQSMVYEPLVKYQADGSVIPWLAKSWTHSEDGKTWTFTLRDDVKFSNGEPFDAEAAAENFRAVLDNRQRHAWLELANQIVDVKALSKTELQITLKSAYYPFLQELALPRPFRFIAPSQFKNHETMNGIKAPIGTGPWILQESKLNQYDVFVRNENYWGEKPAIKKITFNVIPDPTTRAVAFETGDIDLLYGNEGLLPLDTFARFSQNPAYHTQLSQPIETVMLALNTAKAPTNELAVREALNYAVNKKSLIDNALYGTQQVADTLFAPSVPYANLGLKPSQYDPQKAKALLEKAGWTLPAGKDIREKNGQPLRIELSFIGTDALSKSMAEIIQADMRQIGADVSLIGEEESSIYARQRDGRFGMIFHRTWGAPYDPHAFLSSMRVPSHADFQAQQGLADKPLIDKEIGEVLATHDETQRQALYRDILTRLHDEAVYLPISYISMMVVSKPELGNIPYAPIATEIPFEQIKPVKP
total protein half-life in vivo [1]: 6.58 h
total protein half-life in vivo [2]: 6.35 h
total protein half-life in vivo [3]: > 8 h
total protein half-life in vivo [4]: > 8 h
total protein half-life in vivo [7]: > 8 h
total protein half-life in vivo [8]: > 16 h
total protein half-life in vivo [9]: 6.2 h
total protein half-life in vivo [10]: > 16 h
total protein half-life in vivo [11]: 6.61 h

MAYTTFSQTKNDQLKEPMFFGQPVNVARYDQQKYDIFEKLIEKQLSFFWRPEEVDVSRDRIDYQALPEHEKHIFISNLKYQTLLDSIQGRSPNVALLPLISIPELETWVETWAFSETIHSRSYTHIIRNIVNDPSVVFDDIVTNEQIQKRAEGISSYYDELIEMTSYWHLLGEGTHTVNGKTVTVSLRELKKKLYLCLMSVNALEAIRFYVSFACSFAFAERELMEGNAKIIRLIARDEALHLTGTQHMLNLLRSGADDPEMAEIAEECKQECYDLFVQAAQQEKDWADYLFRDGSMIGLNKDILCQYVEYITNIRMQAVGLDLPFQTRSNPIPWINTWLVSDNVQVAPQEVEVSSYLVGQIDSEVDTDDLSNFQL
total protein half-life in vivo [1]: 4.55 ± 0.57 h
total protein half-life in vivo [2]: 4.92 ± 1.1 h
total protein half-life in vivo [3]: 3.45 ± 0.054 h
total protein half-life in vivo [4]: 4.25 ± 0.52 h
total protein half-life in vivo [5]: 3.62 ± 0.26 h
total protein half-life in vivo [6]: 3.04 ± 0.28 h
total protein half-life in vivo [7]: 5.7 ± 0.76 h
total protein half-life in vivo [8]: 9.25 ± 0.099 h
total protein half-life in vivo [9]: 3.415 ± 0.022 h
total protein half-life in vivo [10]: 5.12 ± 0.56 h
total protein half-life in vivo [11]: 5.24 ± 0.12 h
total protein half-life in vivo [12]: 9.5 ± 0.26 h

MSDQFDAKAFLKTVTSQPGVYRMYDAGGTVIYVGKAKDLKKRLSSYFRSNLASRKTEALVAQIQQIDVTVTHTETEALLLEHNYIKLYQPRYNVLLRDDKSYPFIFLSGDTHPRLAMHRGAKHAKGEYFGPFPNGYAVRETLALLQKIFPIRQCENSVYRNRSRPCLQYQIGRCLGPCVEGLVSEEEYAQQVEYVRLFLSGKDDQVLTQLISRMETASQNLEFEEAARIRDQIQAVRRVTEKQFVSNTGDDLDVIGVAFDAGMACVHVLFIRQGKVLGSRSYFPKVPGGTELSEVVETFVGQFYLQGSQMRTLPGEILLDFNLSDKTLLADSLSELAGRKINVQTKPRGDRARYLKLARTNAATALTSKLSQQSTVHQRLTALASVLKLPEVKRMECFDISHTMGEQTVASCVVFDANGPLRAEYRRYNITGITPGDDYAAMNQVLRRRYGKAIDDSKIPDVILIDGGKGQLAQAKNVFAELDVSWDKNHPLLLGVAKGADRKAGLETLFFEPEGEGFSLPPDSPALHVIQHIRDESHDHAIGGHRKKRAKVKNTSSLETIEGVGPKRRQMLLKYMGGLQGLRNASVEEIAKVPGISQGLAEKIFWSLKH [P0A8G0]
total protein half-life in vivo [1]: 6.54 ± 0.81 h
total protein half-life in vivo [2]: 5.14 ± 0.15 h
total protein half-life in vivo [3]: 4.77 ± 0.12 h
total protein half-life in vivo [4]: 6.421 ± 0.061 h
total protein half-life in vivo [5]: 4.75 ± 0.15 h
total protein half-life in vivo [6]: 2.84 ± 0.067 h
total protein half-life in vivo [7]: 5.1 ± 0.39 h
total protein half-life in vivo [8]: 7.83 ± 0.25 h
total protein half-life in vivo [9]: 4.84 ± 0.28 h
total protein half-life in vivo [10]: 8.62 ± 0.12 h
total protein half-life in vivo [11]: 4.61 ± 0.15 h
total protein half-life in vivo [12]: 8.48 ± 0.19 h

MKTFFRTVLFGSLMAVCANSYALSESEAEDMADLTAVFVFLKNDCGYQNLPNGQIRRALVFFAQQNQWDLSNYDTFDMKALGEDSYRDLSGIGIPVAKKCKALARDSLSLLAYVK [P0AA95]
total protein half-life in vivo [1]: 3.21 ± 0.054 h
total protein half-life in vivo [2]: 3.39 ± 0.072 h
total protein half-life in vivo [3]: 6.81 h
total protein half-life in vivo [4]: 2.74 h
total protein half-life in vivo [5]: 3.47 ± 0.12 h
total protein half-life in vivo [7]: 3.61 ± 0.71 h
total protein half-life in vivo [8]: 4.74 h
total protein half-life in vivo [9]: 3.1 ± 0.091 h
total protein half-life in vivo [10]: 5.56 ± 1.2 h
total protein half-life in vivo [11]: 3.21 ± 0.85 h
total protein half-life in vivo [12]: 5.86 ± 0.72 h
